This passage reports Kd results from paper PMC12375107 (Cell Death & Disease, 2025).

The target in this test is T1, STING protein (SPR) (human, UniProt Q86WV6 1-379).
T1 construct: STING, protein injected as analyte; Probably the recombinant protein from E. coli of the GST pull-down
As to the kind of experiment: SPR; Biacore 8K; CAD captured on sensor chip CM5; STING injected at increasing concentrations for 2 min, dissociation 2 min in running buffer; equilibrium constants by the evaluation software. To be noted: both partners purified. For orientation: In SPR one partner is held on a chip, and binding of the other changes the refractive index at the surface.

T1 sequence (Q86WV6 whole entry): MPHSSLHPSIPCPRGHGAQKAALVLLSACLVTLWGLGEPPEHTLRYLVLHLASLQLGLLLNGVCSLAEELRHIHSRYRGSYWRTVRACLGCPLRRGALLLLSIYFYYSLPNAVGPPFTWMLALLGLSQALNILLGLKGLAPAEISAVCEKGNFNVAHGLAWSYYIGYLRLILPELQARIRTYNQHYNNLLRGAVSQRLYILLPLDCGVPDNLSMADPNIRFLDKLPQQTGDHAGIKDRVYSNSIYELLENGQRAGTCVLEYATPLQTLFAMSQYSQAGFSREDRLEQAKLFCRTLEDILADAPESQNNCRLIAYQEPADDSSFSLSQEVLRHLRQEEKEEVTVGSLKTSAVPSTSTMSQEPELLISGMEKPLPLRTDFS

B1: CAD protein (SPR) (enzyme, human, UniProt O76075 1-338, looked up)
chain: MLQKPKSVKLRALRSPRKFGVAGRSCQEVLRKGCLRFQLPERGSRLCLYEDGTELTEDYFPSVPDNAELVLLTLGQAWQGYVSDIRRFLSAFHEPQVGLIQAAQQLLCDEQAPQRQRLLADLLHNVSQNIAAETRAEDPPWFEGLESRFQSKSGYLRYSCESRIRSYLREVSSYPSTVGAEAQEEFLRVLGSMCQRLRSMQYNGSYFDRGAKGGSRLCTPEGWFSCQGPFDMDSCLSRHSINPYSNRESRILFSTWNLDHIIEKKRTIIPTLVEAIKEQDGREVDWEYFYGLLFTSENLKLVHIVCHKKTTHKLNCDPSRIYKPQTRLKRKQPVRKRQ
notes: Probably the recombinant protein from E. coli of the GST pull-down
B1: the affinity, expressed as Kd, was 993 nM.
